Source: the supplement of paper PMC12764529
± gives the half width of the 95% confidence interval.

Assays:
[1] = folding stability dG unfold (combined trypsin and chymotrypsin); higher = more stable
Outline: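 Designed mini-proteins (under 80 residues, no cysteine) in a PA-tagged cDNA display construct were digested with trypsin and chymotrypsin. Each protease was used at 11 concentrations (threefold dilutions) plus a no-protease condition, followed by sequencing. K50 was inferred by Bayesian fitting of sequencing counts, and unfolding free energy was derived against a sequence-predicted unfolded-state K50 and a shared folded-state K50, per protease or combined. Only designs with AlphaFold2 dimer inter-PAE above 15 were kept.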

[2] = folding stability dG unfold from trypsin proteolysis; higher = more stable
Method: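 Folding stability of de novo designed mini-proteins (<80 aa, no Cys; designed by TrROS, TrMRF, ProteinMPNN and the joint model) was measured by cDNA display proteolysis with trypsin and chymotrypsin. Each protease was used at 11 concentrations in a threefold dilution series plus a no-protease condition. K50 was inferred by Bayesian fitting of sequencing counts, and dG unfold was derived against a sequence-predicted unfolded-state K50 (Tsuboyama et al. method). Sequences shown include variable-length N-terminal GS-type padding (SAGGSAGG...) inside a display construct carrying a PA tag. Rows were kept only if the AF2 dimer inter-PAE was >15, to exclude likely homo-oligomers.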

Sequence | folding stability dG unfold [1] | folding stability dG unfold [2]
AAVIPTPTAEPVKVETLSTEVSPSLFPSPAAGGPRVLRTVVTTKTTVAVQTEDAWVEVETTTTTTEVLPPES [r1_112_JUSTAS] | < -1 kcal/mol | -0.546 ± 0.21 kcal/mol
MEFTITVEYDEETNELTVTITYPGYTIEIRIDPDGRIRVEVRMDPGMSEEERKRMQELAEELAKKLEEALKS [r1_468_TrROS_Hall] | > 6 kcal/mol | 4.33 ± 0.69 kcal/mol
SAGEELLREIAKKLNLPEGAEIVKVEIKVEEKDGRLRITITITVRNKETGELKTIEIEIEIELPEEEEESAG [r5_94_TrROS_Hall] | 4.01 ± 0.43 kcal/mol | 3.9 ± 0.27 kcal/mol
SAGGANLKIDIERHPGNGNINATIKFDGEEITVPATLSDIEEIIDEIIRVKPVPYYEKDGKLKPHWASAGGS [r8_332_TrROS] | < -1 kcal/mol | -0.781 ± 0.19 kcal/mol
SAGGAVTSVSPGNGTTTVTVPISVPGSPVTLNIPTPDATLTPDPSGTVTVTLPPNGTYSITITGPRSDSAGG [r19_227_JUSTAS] | < -1 kcal/mol | -0.688 ± 0.16 kcal/mol
SAGGDPGAEKIGTKTYPVGDKELTIETYRLPDPDELKVVVTDPTDGKTTPITVSLSEPPNIPVAELLSAGGS [r16_768_JUSTAS] | < -1 kcal/mol | -0.276 ± 0.16 kcal/mol
SAGGETEVVETNASPAELAERVAEALAAGREVTVTLPDGTVLDAGPDLADLPADTPVRLEFTPAVAASAGGS [r16_31_JUSTAS] | 0.257 ± 0.17 kcal/mol | 0.841 ± 0.032 kcal/mol
SAGGFKITEVEKDEKKGYPWVSIRIPPKSTLKKLKNMPGPVRIHNPEPGQWIHMPVDDPEEFLDKLLKSAGG [r13_604_TrROS] | -0.516 ± 0.94 kcal/mol | 0.274 ± 0.18 kcal/mol
SAGGHRMDIQFDGSPDKIEEIQKKIHKKWPDYKVDDIEVNPGNPDQVTIRIEMDNGIPMNEIQEALMSAGGS [r16_180_TrROS] | < -1 kcal/mol | -1.32 ± 0.22 kcal/mol
SAGGKIREVEIEEFDPDNGWVMITFNMPPEDLDKMKPIKLPGIKDVHWDPGNDHISASMPLEEAKEASAGGS [r16_614_TrROS] | -0.5 ± 0.41 kcal/mol | -0.121 ± 0.17 kcal/mol
SAGGLDSAPPVEVKVEVEEEKTKDPNSDSEVTKYKITVTTTVGGTPIVTEEESIVYKKPDGTIIVEKKSAGG [r19_260_JUSTAS] | -0.242 ± 0.96 kcal/mol | -0.403 ± 0.28 kcal/mol
SAGGMEVVENPGGNLKIIEKEPEGPEFVKTTTTTIKTFKNPGGSTSSTITTTTTTVKISKSKNPELLSAGGS [r16_802_JUSTAS] | -0.784 ± 0.3 kcal/mol | -0.742 ± 0.26 kcal/mol
SAGGMKIRLDNGKEIEINQSPGYMSIQIRPPDDGKKREYPFPMPDGENSMEDFVNEIANHGRITEIEPSAGG [r13_579_TrROS] | -0.249 ± 0.23 kcal/mol | 0.522 ± 0.075 kcal/mol
SAGGMKTTFTITHPDAEKAREALEKAVPSDLDVEPEFTPTPDGYTTTVTVPAEHPEVAAAALAAALASAGGS [r16_43_JUSTAS] | < -1 kcal/mol | 0.0621 ± 0.09 kcal/mol
SAGGMKVEVVETPTSLQIVTTTISTEKIPFNDVTLTTVTTEVKTIPLPEKPPVGLPYFDPEGKPLLLSAGGS [r8_46_JUSTAS] | -0.424 ± 0.18 kcal/mol | -0.0171 ± 0.07 kcal/mol
SAGGMMKIKITFADGTTKEIELPEDVTEVTITYDEKTGKVTITVRLKNGETKTITIPADKITKIEIESAGGS [r16_658_TrROS_Hall] | > 6 kcal/mol | 5.39 ± 0.7 kcal/mol
SAGGMNPDNFKPVRTYTLPFDGHKIEVEVWEPPNGNPLIPIQLEDDNGKPKGPQWIPPDQIDENGKILSAGG [r13_447_TrROS] | -0.213 ± 0.28 kcal/mol | 0.343 ± 0.091 kcal/mol
SAGGMPEGDFWVRIRIPVPKYEMERDPNDPNDYKMEPEWKPKEIWLPVKSPEALDEFRENGFEIEPFSAGGS [r8_482_TrROS] | -0.137 ± 0.16 kcal/mol | 0.251 ± 0.091 kcal/mol
SAGGMSKEEARKAIENPADATYTFTITTRPSTPTPSSTTTTVTAKVTDPDAFLDAVPEGHSVTVTASSAGGS [r16_116_JUSTAS] | < -1 kcal/mol | -0.465 ± 0.14 kcal/mol
SAGGMTKPTSSPSPLDPSTPPEEWIAAIEKELPPDWRIVEPRPRPGPRLVTVLAEDPNSGKRVILRASAGGS [r16_250_JUSTAS] | < -1 kcal/mol | -0.989 ± 0.55 kcal/mol
SAGGMTTTVTVEKFPDGSVTEVTTLPNGIVLTTPLPYTKVVPVDPPDGPAVSWGPVTVTSTESVSSEASAGG [r13_236_JUSTAS] | 0.0898 ± 0.26 kcal/mol | 0.393 ± 0.068 kcal/mol

Sequence | folding stability dG unfold [1] | folding stability dG unfold [2]
SAGGMTVTVPREGPVTEEDVEKIAAELAAQGLKEVPLVVIETEKGSLPDGRPTELVRERTYYYEYPESAGGS [r16_44_JUSTAS] | < -1 kcal/mol | -0.307 ± 0.31 kcal/mol
SAGGMYTLSEKTLPDGSKLLTVTRPDKPEEVFLPKEAENLPPETPVTTRGAGGEEVRPVAEILPPALLSAGG [r13_97_JUSTAS] | -0.215 ± 0.18 kcal/mol | 0.257 ± 0.11 kcal/mol
SAGGNYYPMEFRNPENNHEIRITVERDPPGMYRINIQIENPNGNQIPFPMTMPPDDFKPGDEFEIKIPSAGG [r13_959_TrROS] | 0.213 ± 0.44 kcal/mol | 0.676 ± 0.16 kcal/mol
SAGGQTIEIPNGITITYYPNNQVTITIRYPGRPLTVTSPYDSPEEAIDNIIEQAREMARPPPPKKKDDSAGG [r13_896_TrROS] | 0.68 ± 0.41 kcal/mol | 0.633 ± 0.16 kcal/mol
SAGGSADSVMIPVESPEEIKEELQEGPPKRVELPNPDGERYWIQIDWDDPENIEVMPPDDPEKMKPSAGGSA [r15_11_TrROS] | 0.0877 ± 0.28 kcal/mol | 0.716 ± 0.13 kcal/mol
SAGGSAEPPVKEIAEKLIKKSKKPIIATVVEKKKDGYLVTKVKYIPNTGKPIIKVKKITPEELKKKSAGGSA [r15_156_TrMRF] | -0.785 ± 0.7 kcal/mol | 0.159 ± 0.097 kcal/mol
SAGGSAGGAEITIELTEDGTLRITVDGKKLEIRLEPAPPPVEVKTERVLDPDTDELTTRTETVLSAGGSAGG [r6_34_TrROS_Hall] | -0.548 ± 0.43 kcal/mol | 0.203 ± 0.19 kcal/mol
SAGGSAGGDGDFRVSIDPEELPDGQEYKISIQSPDGKPIAEIPIRIPLPPPKPERDDNGKPKPVSAGGSAGG [r6_487_TrROS] | 0.216 ± 0.099 kcal/mol | 0.844 ± 0.025 kcal/mol
SAGGSAGGEPRELEAEVEVIEFPPTGVALAVIRVNDGAEPRLIPVPFDAPEDVTPEELAKKILGSAGGSAGG [r6_20_TrMRF] | < -1 kcal/mol | -0.826 ± 0.63 kcal/mol
SAGGSAGGKIEIVIEGLSEEEVEALAKELRDAGLEIEVTVVPPPAPPPLTAEELAKNPEALKALSAGGSAGG [r6_804_TrROS_Hall] | 0.02 ± 0.26 kcal/mol | 0.714 ± 0.053 kcal/mol
SAGGSAGGKIRILEEEEDPANGERRLMVMVHNPKGKPHQYPVPLDDADEILEHLPPGMPVEIYPSAGGSAGG [r6_113_TrROS] | -0.514 ± 0.97 kcal/mol | 0.362 ± 0.097 kcal/mol
SAGGSAGGKKKFKVEKITEIKVEKLENGEEVIVKIRLKNGEEIEIPAKDIKLEDLPEGAEIEVISAGGSAGG [r6_609_TrROS_Hall] | < -1 kcal/mol | 0.123 ± 0.34 kcal/mol
SAGGSAGGMNKIKVTTSVTTFEETVLAGNKTFTVTLLKKTTTITDPNSSKVTTITETKSPEELSSAGGSAGG [r6_752_JUSTAS] | -0.135 ± 0.27 kcal/mol | 0.294 ± 0.27 kcal/mol
SAGGSAGGMVTFDTPEELEALIEELLARHPRDVPVDVTIESEDSRYTIKVAPERVEEISESEGSSAGGSAGG [r6_289_JUSTAS] | < -1 kcal/mol | -0.763 ± 0.47 kcal/mol
SAGGSAGGMVTVELPGLPTPEEARARAEEVVAAIVAAGHPGEEVTLTVVYPGSGAAETFTVPLASAGGSAGG [r6_238_JUSTAS] | -0.328 ± 0.22 kcal/mol | 0.225 ± 0.059 kcal/mol
SAGGSAGGSAGDEKVPFFVRIIDPKNGKPVREFPVEVDPGKIKIPKELAENMPPDNVEIYSAGGSAGGSAGG [r11_725_TrROS] | < -1 kcal/mol | -0.824 ± 0.4 kcal/mol
SAGGSAGGSAGEEIIRAAKEAAKAGKKVRIVVPKGMSAEEIAKKLAEELNIEKVEVYELPSAGGSAGGSAGG [r11_524_TrROS_Hall] | -0.142 ± 0.11 kcal/mol | 0.332 ± 0.086 kcal/mol
SAGGSAGGSAGGALVVEVEVEGERRTLVVPVPDEIPPGAEEVAKKLGLKDAKVKIAPLDLSAGGSAGGSAGG [r11_219_TrMRF] | < -1 kcal/mol | -0.662 ± 0.53 kcal/mol
SAGGSAGGSAGGGAMSPEPLGFKKVETKVEVVGGSPVIVVKLETPEGELELELPPDAKLSAGGSAGGSAGGS [r10_968_JUSTAS] | < -1 kcal/mol | -0.308 ± 0.12 kcal/mol
SAGGSAGGSAGGGLYNVVVTGKGEERVLPAKSPDDVKEALEEAGLEIKSIHPETGIVEAGSAGGSAGGSAGG [r7_726_TrMRF] | < -1 kcal/mol | -0.471 ± 0.18 kcal/mol
